The source of these data is US20210388110A1 (published 2021).

Broadly, the Kd is a measure of binding affinity in units of concentration.

The target of the test is T1, soluble human CD3ε chain (human, UniProt P07766 23-126, limits assumed).
T1 construct: also called human CD3 epsilon chain
The experiment in a line: SPR (Biacore), soluble human CD3ε chain.

T1 sequence (P07766 23-126 limits assumed): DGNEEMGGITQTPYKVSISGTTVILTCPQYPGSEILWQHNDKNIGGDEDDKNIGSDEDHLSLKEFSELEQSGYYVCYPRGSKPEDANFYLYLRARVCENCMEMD

B1: TR01H067-E22Hh/none-Hi-Kn010G3/L0011-k0 (antibody, human IgG1, kappa, L234A L235A, N297A)
heavy: QVQLVESGGGLVQPGRSLRLSCAASGFTFSNAWMHWVRQAPGKGLEWVAQIKDKSQNYATYYAESVKGRFTISRDDSKNSLYLQMNSLKTEDTAVYYCRYVHYAASYGVDAWGQGTTVTVSSASTKGPSVFPLAPSSKSTSGGTAALGCLVKDYFPEPVTVSWNSGALTSGVHTFPAVLQSSGLYSLSSVVTVPSSSLGTQTYICNVNHKPSNTKVDKKVEPKSCDKTHTCPPCPAPEAAGGPSVFLFPPKPKDTLMISRTPEVTCVVVDVSHEDPEVKFNWYVDGVEVHNAKTKPREEQYASTYRVVSVLTVLHQDWLNGKEYKCKVSNKALPAPIEKTISKAKGQPREPQVYTLPPSRCELTKNQVSLSCAVKGFYPSDIAVEWESNGQPENNYKTTPPVLDSDGSFFLVSKLTVDKSRWQQGNVFSCSVMHEALHNHYTQKSLSLSPDYKDDDDK
chain: EPKSSDKTHTCPPCPAPELLGGPSVFLFPPKPKDTLMISRTPEVTCVVVDVSHEDPEVKFNWYVDGVEVHNAKTKPREEQYNSTYRVVSVLTVLHQDWLNGKEYKCKVSNKALPAPIEKTISKAKGQPREPQVCTLPPSRDELTKNQVSLWCLVKGFYPSDIAVEWESNGQPENNYKTTPPVLDSDGSFFLYSKLTVDKSRWQQGNVFSCSVMHEALHNRYTQKSLSLSP
light: DIVMTQSPLSLPVTPGEPASISCRSSQPLVHSNRNTYLHWYQQKPGQAPRLLIYKVSNRFSGVPDRFSGSGSGTDFTLKISRVEAEDVGVYYCGQGTQVPYTFGQGTKLEIKRTVAAPSVFIFPPSDEQLKSGTASVVCLLNNFYPREAKVQWKVDNALQSGNSQESVTEQDSKDSTYSLSSTLTLSKADYEKHKVYACEVTHQGLSSPVTKSFNRGEC
notes: one-arm antibody (single Fab) with Fab-less hinge-Fc chain Hi-Kn010G3
B1 displayed a Kd of 71.8 nM.

B2: TR01H067-E22Hh/none-Hi-Kn010G3/L0215-k0 (antibody, human IgG1, kappa, L234A L235A, N297A)
heavy: QVQLVESGGGLVQPGRSLRLSCAASGFTFSNAWMHWVRQAPGKGLEWVAQIKDKSQNYATYYAESVKGRFTISRDDSKNSLYLQMNSLKTEDTAVYYCRYVHYAASYGVDAWGQGTTVTVSSASTKGPSVFPLAPSSKSTSGGTAALGCLVKDYFPEPVTVSWNSGALTSGVHTFPAVLQSSGLYSLSSVVTVPSSSLGTQTYICNVNHKPSNTKVDKKVEPKSCDKTHTCPPCPAPEAAGGPSVFLFPPKPKDTLMISRTPEVTCVVVDVSHEDPEVKFNWYVDGVEVHNAKTKPREEQYASTYRVVSVLTVLHQDWLNGKEYKCKVSNKALPAPIEKTISKAKGQPREPQVYTLPPSRCELTKNQVSLSCAVKGFYPSDIAVEWESNGQPENNYKTTPPVLDSDGSFFLVSKLTVDKSRWQQGNVFSCSVMHEALHNHYTQKSLSLSPDYKDDDDK
chain: EPKSSDKTHTCPPCPAPELLGGPSVFLFPPKPKDTLMISRTPEVTCVVVDVSHEDPEVKFNWYVDGVEVHNAKTKPREEQYNSTYRVVSVLTVLHQDWLNGKEYKCKVSNKALPAPIEKTISKAKGQPREPQVCTLPPSRDELTKNQVSLWCLVKGFYPSDIAVEWESNGQPENNYKTTPPVLDSDGSFFLYSKLTVDKSRWQQGNVFSCSVMHEALHNRYTQKSLSLSP
light: DIVMTQSPLSLPVTPGEPASISCRSSQPPVHSNRNTYIHWYQQKPGQAPRLLIYKVSNRFSGVPDRFSGSGSGTDFTLKISRVEAEDVGVYYCGQGTQVPYTFGQGTKLEIKRTVAAPSVFIFPPSDEQLKSGTASVVCLLNNFYPREAKVQWKVDNALQSGNSQESVTEQDSKDSTYSLSSTLTLSKADYEKHKVYACEVTHQGLSSPVTKSFNRGEC
notes: as for B1
B2: the Kd worked out at 74.1 nM.

B3: TR01H067-E22Hh/none-Hi-Kn010G3/L0248-k0 (antibody, human IgG1, kappa, L234A L235A, N297A)
heavy: QVQLVESGGGLVQPGRSLRLSCAASGFTFSNAWMHWVRQAPGKGLEWVAQIKDKSQNYATYYAESVKGRFTISRDDSKNSLYLQMNSLKTEDTAVYYCRYVHYAASYGVDAWGQGTTVTVSSASTKGPSVFPLAPSSKSTSGGTAALGCLVKDYFPEPVTVSWNSGALTSGVHTFPAVLQSSGLYSLSSVVTVPSSSLGTQTYICNVNHKPSNTKVDKKVEPKSCDKTHTCPPCPAPEAAGGPSVFLFPPKPKDTLMISRTPEVTCVVVDVSHEDPEVKFNWYVDGVEVHNAKTKPREEQYASTYRVVSVLTVLHQDWLNGKEYKCKVSNKALPAPIEKTISKAKGQPREPQVYTLPPSRCELTKNQVSLSCAVKGFYPSDIAVEWESNGQPENNYKTTPPVLDSDGSFFLVSKLTVDKSRWQQGNVFSCSVMHEALHNHYTQKSLSLSPDYKDDDDK
chain: EPKSSDKTHTCPPCPAPELLGGPSVFLFPPKPKDTLMISRTPEVTCVVVDVSHEDPEVKFNWYVDGVEVHNAKTKPREEQYNSTYRVVSVLTVLHQDWLNGKEYKCKVSNKALPAPIEKTISKAKGQPREPQVCTLPPSRDELTKNQVSLWCLVKGFYPSDIAVEWESNGQPENNYKTTPPVLDSDGSFFLYSKLTVDKSRWQQGNVFSCSVMHEALHNRYTQKSLSLSP
light: DIVMTQSPLSLPVTPGEPASISCRPSQSPVHSNRNTYIQWYQQKPGQAPRLLIYKVSNRFSGVPDRFSGSGSGTDFTLKISRVEAEDVGVYYCYQGTQVPYTFGQGTKLEIKRTVAAPSVFIFPPSDEQLKSGTASVVCLLNNFYPREAKVQWKVDNALQSGNSQESVTEQDSKDSTYSLSSTLTLSKADYEKHKVYACEVTHQGLSSPVTKSFNRGEC
notes: as for B1
In turn, B3 returned a Kd of 139 nM.

B4: TR01H067-E22Hh/none-Hi-Kn010G3/TR01L015-k0 (antibody, human IgG1, kappa, L234A L235A, N297A)
heavy: QVQLVESGGGLVQPGRSLRLSCAASGFTFSNAWMHWVRQAPGKGLEWVAQIKDKSQNYATYYAESVKGRFTISRDDSKNSLYLQMNSLKTEDTAVYYCRYVHYAASYGVDAWGQGTTVTVSSASTKGPSVFPLAPSSKSTSGGTAALGCLVKDYFPEPVTVSWNSGALTSGVHTFPAVLQSSGLYSLSSVVTVPSSSLGTQTYICNVNHKPSNTKVDKKVEPKSCDKTHTCPPCPAPEAAGGPSVFLFPPKPKDTLMISRTPEVTCVVVDVSHEDPEVKFNWYVDGVEVHNAKTKPREEQYASTYRVVSVLTVLHQDWLNGKEYKCKVSNKALPAPIEKTISKAKGQPREPQVYTLPPSRCELTKNQVSLSCAVKGFYPSDIAVEWESNGQPENNYKTTPPVLDSDGSFFLVSKLTVDKSRWQQGNVFSCSVMHEALHNHYTQKSLSLSPDYKDDDDK
chain: EPKSSDKTHTCPPCPAPELLGGPSVFLFPPKPKDTLMISRTPEVTCVVVDVSHEDPEVKFNWYVDGVEVHNAKTKPREEQYNSTYRVVSVLTVLHQDWLNGKEYKCKVSNKALPAPIEKTISKAKGQPREPQVCTLPPSRDELTKNQVSLWCLVKGFYPSDIAVEWESNGQPENNYKTTPPVLDSDGSFFLYSKLTVDKSRWQQGNVFSCSVMHEALHNRYTQKSLSLSP
light: DIVMTQSPLSLPVTPGEPASISCRSSQSPVHSNRNTYLHWYLQKPGQSPQLLIYKVSNRFSGVPDRFSGSGSGTDFTLKISRVEAEDVGVYYCGQGTQVPYTFGQGTKLEIKRTVAAPSVFIFPPSDEQLKSGTASVVCLLNNFYPREAKVQWKVDNALQSGNSQESVTEQDSKDSTYSLSSTLTLSKADYEKHKVYACEVTHQGLSSPVTKSFNRGEC
notes: as for B1
B4 had a Kd of 86.4 nM.

B5: TR01H067-E22Hh/none-Hi-Kn010G3/L0226-k0 (antibody, human IgG1, kappa, L234A L235A, N297A)
heavy: QVQLVESGGGLVQPGRSLRLSCAASGFTFSNAWMHWVRQAPGKGLEWVAQIKDKSQNYATYYAESVKGRFTISRDDSKNSLYLQMNSLKTEDTAVYYCRYVHYAASYGVDAWGQGTTVTVSSASTKGPSVFPLAPSSKSTSGGTAALGCLVKDYFPEPVTVSWNSGALTSGVHTFPAVLQSSGLYSLSSVVTVPSSSLGTQTYICNVNHKPSNTKVDKKVEPKSCDKTHTCPPCPAPEAAGGPSVFLFPPKPKDTLMISRTPEVTCVVVDVSHEDPEVKFNWYVDGVEVHNAKTKPREEQYASTYRVVSVLTVLHQDWLNGKEYKCKVSNKALPAPIEKTISKAKGQPREPQVYTLPPSRCELTKNQVSLSCAVKGFYPSDIAVEWESNGQPENNYKTTPPVLDSDGSFFLVSKLTVDKSRWQQGNVFSCSVMHEALHNHYTQKSLSLSPDYKDDDDK
chain: EPKSSDKTHTCPPCPAPELLGGPSVFLFPPKPKDTLMISRTPEVTCVVVDVSHEDPEVKFNWYVDGVEVHNAKTKPREEQYNSTYRVVSVLTVLHQDWLNGKEYKCKVSNKALPAPIEKTISKAKGQPREPQVCTLPPSRDELTKNQVSLWCLVKGFYPSDIAVEWESNGQPENNYKTTPPVLDSDGSFFLYSKLTVDKSRWQQGNVFSCSVMHEALHNRYTQKSLSLSP
light: DIVMTQSPLSLPVTPGEPASISCRSSQSPVHSNRNTYIHWYQQKPGQAPRLLIYKVSNRFSGVPDRFSGSGSGTDFTLKISRVEAEDVGVYYCIQGTQVPYTFGQGTKLEIKRTVAAPSVFIFPPSDEQLKSGTASVVCLLNNFYPREAKVQWKVDNALQSGNSQESVTEQDSKDSTYSLSSTLTLSKADYEKHKVYACEVTHQGLSSPVTKSFNRGEC
notes: as for B1
For the molecule B5, the Kd is 132 nM.

B6: TR01H067-E22Hh/none-Hi-Kn010G3/L0222-k0 (antibody, human IgG1, kappa, L234A L235A, N297A)
heavy: QVQLVESGGGLVQPGRSLRLSCAASGFTFSNAWMHWVRQAPGKGLEWVAQIKDKSQNYATYYAESVKGRFTISRDDSKNSLYLQMNSLKTEDTAVYYCRYVHYAASYGVDAWGQGTTVTVSSASTKGPSVFPLAPSSKSTSGGTAALGCLVKDYFPEPVTVSWNSGALTSGVHTFPAVLQSSGLYSLSSVVTVPSSSLGTQTYICNVNHKPSNTKVDKKVEPKSCDKTHTCPPCPAPEAAGGPSVFLFPPKPKDTLMISRTPEVTCVVVDVSHEDPEVKFNWYVDGVEVHNAKTKPREEQYASTYRVVSVLTVLHQDWLNGKEYKCKVSNKALPAPIEKTISKAKGQPREPQVYTLPPSRCELTKNQVSLSCAVKGFYPSDIAVEWESNGQPENNYKTTPPVLDSDGSFFLVSKLTVDKSRWQQGNVFSCSVMHEALHNHYTQKSLSLSPDYKDDDDK
chain: EPKSSDKTHTCPPCPAPELLGGPSVFLFPPKPKDTLMISRTPEVTCVVVDVSHEDPEVKFNWYVDGVEVHNAKTKPREEQYNSTYRVVSVLTVLHQDWLNGKEYKCKVSNKALPAPIEKTISKAKGQPREPQVCTLPPSRDELTKNQVSLWCLVKGFYPSDIAVEWESNGQPENNYKTTPPVLDSDGSFFLYSKLTVDKSRWQQGNVFSCSVMHEALHNRYTQKSLSLSP
light: DIVMTQSPLSLPVTPGEPASISCRSSQSPVHSNRNTYIQWYQQKPGQAPRLLIYKVSNRFSGVPDRFSGSGSGTDFTLKISRVEAEDVGVYYCYQGTQVPYTFGQGTKLEIKRTVAAPSVFIFPPSDEQLKSGTASVVCLLNNFYPREAKVQWKVDNALQSGNSQESVTEQDSKDSTYSLSSTLTLSKADYEKHKVYACEVTHQGLSSPVTKSFNRGEC
notes: as for B1
As for B6, the affinity, expressed as Kd, was 76.3 nM.
